Test results published in patent US20190185537A1 (AstraZeneca / MedImmune, published 2019).
Read-outs that look alike come from different tables or passages of the source. Numbered stars: 1 amine (or outer) side, 2 acyl side, 3 side chain; on linkers, the order of the positions; unused ones are H or OH. Side chains are listed from the residue outwards. Ends that are not written are not given here. * marks the point of attachment. γGlu = O=C(O)[C@H](CCC(=O)[*:2])N[*:1]; Palmitoyl = CCCCCCCCCCCCCCCC(=O)*

T1: human glucose-dependent insulinotropic peptide (gastric inhibitory polypeptide) receptor (human, UniProt P48546 22-466)
T1 sequence (looked up): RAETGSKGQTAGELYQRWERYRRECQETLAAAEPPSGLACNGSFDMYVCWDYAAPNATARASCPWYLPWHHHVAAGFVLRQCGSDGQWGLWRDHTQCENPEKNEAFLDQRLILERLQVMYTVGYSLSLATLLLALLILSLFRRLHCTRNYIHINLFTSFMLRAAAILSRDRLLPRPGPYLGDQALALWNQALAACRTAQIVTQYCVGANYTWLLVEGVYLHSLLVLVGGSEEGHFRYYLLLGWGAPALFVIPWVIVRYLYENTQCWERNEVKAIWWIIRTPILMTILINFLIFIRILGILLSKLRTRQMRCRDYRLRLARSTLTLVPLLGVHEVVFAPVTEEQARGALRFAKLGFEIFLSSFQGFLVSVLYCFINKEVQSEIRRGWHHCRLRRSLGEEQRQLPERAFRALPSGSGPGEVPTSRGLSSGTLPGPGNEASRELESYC

T2: mouse GLP-1 receptor (mouse, UniProt O35659 22-463)
T2 sequence (looked up): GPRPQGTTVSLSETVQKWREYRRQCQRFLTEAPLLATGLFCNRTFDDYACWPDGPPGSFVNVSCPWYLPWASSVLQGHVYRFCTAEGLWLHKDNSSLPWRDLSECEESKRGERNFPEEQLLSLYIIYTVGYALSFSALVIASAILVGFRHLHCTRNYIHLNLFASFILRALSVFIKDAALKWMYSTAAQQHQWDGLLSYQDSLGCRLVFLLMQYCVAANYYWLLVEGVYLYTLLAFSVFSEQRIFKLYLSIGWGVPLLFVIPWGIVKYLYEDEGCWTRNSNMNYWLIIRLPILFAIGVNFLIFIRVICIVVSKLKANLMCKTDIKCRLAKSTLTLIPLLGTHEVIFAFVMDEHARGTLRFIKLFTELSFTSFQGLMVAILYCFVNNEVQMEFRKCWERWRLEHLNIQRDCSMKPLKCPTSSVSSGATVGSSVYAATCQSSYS

T3: rat GLP-1 receptor (rat, UniProt P32301 22-463)
T3 sequence (looked up): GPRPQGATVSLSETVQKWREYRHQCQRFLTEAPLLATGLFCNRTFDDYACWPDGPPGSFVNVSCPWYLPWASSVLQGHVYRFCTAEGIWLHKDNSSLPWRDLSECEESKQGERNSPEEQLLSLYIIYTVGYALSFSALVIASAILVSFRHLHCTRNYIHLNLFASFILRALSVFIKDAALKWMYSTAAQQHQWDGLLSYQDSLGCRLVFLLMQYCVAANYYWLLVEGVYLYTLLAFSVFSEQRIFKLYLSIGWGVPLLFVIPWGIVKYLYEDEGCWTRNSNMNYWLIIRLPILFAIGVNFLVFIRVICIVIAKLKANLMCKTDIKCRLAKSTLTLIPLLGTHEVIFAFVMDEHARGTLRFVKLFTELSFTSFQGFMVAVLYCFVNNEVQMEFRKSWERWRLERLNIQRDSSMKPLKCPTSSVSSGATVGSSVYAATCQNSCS


Tests used:
[1] = target: T4, human GLP-1 receptor (human, UniProt P43220 24-463); experiment: cell-based or functional assay
[2] = target: T5, human glucagon receptor (human, UniProt P47871 26-477); experiment: cell-based or functional assay
T5 sequence (P47871 26-477): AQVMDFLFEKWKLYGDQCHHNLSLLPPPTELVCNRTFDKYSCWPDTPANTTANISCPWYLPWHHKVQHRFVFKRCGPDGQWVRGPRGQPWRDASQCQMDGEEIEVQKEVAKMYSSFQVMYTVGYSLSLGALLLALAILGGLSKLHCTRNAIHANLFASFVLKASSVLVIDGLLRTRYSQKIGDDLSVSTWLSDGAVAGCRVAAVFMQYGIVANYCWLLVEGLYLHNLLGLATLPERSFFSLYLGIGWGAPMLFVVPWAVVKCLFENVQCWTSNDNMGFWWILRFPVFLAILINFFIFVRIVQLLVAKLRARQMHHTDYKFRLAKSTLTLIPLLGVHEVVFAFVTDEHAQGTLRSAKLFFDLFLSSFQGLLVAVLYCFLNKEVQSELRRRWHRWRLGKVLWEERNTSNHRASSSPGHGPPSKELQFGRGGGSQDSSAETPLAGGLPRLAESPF

[3] = target: T1, human glucose-dependent insulinotropic …; experiment: cell-based or functional assay
[4] = target: T4, human GLP-1 receptor; experiment: cell-based or functional assay; remark: listed apart in the source
[5] = target: T5, human glucagon receptor; experiment: cell-based or functional assay; remark: listed apart in the source
[6] = target: T1, human glucose-dependent insulinotropic …; experiment: cell-based or functional assay; remark: listed apart in the source
[7] = target: T4, human GLP-1 receptor; experiment: cell-based or functional assay; remark: listed apart in the source
[8] = target: T2, mouse GLP-1 receptor; experiment: cell-based or functional assay
[9] = target: T5, human glucagon receptor; experiment: cell-based or functional assay; remark: listed apart in the source
[10] = target: mouse glucagon receptor (mouse, UniProt Q61606 27-485); experiment: cell-based or functional assay
Chain of mouse glucagon receptor (Q61606 27-485): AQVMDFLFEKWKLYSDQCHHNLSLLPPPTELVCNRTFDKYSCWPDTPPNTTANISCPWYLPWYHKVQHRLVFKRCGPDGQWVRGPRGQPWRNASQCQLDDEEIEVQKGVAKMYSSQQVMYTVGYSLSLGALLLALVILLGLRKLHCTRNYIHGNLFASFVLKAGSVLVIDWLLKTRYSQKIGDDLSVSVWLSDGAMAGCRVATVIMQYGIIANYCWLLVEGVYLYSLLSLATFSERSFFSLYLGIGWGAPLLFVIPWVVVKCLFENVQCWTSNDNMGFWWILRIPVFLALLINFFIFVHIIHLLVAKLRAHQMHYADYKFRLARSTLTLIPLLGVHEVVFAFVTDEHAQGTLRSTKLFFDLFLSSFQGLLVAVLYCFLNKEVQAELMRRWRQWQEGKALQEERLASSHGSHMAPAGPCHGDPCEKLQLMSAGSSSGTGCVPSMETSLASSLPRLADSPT

[11] = target: T4, human GLP-1 receptor; experiment: cell-based or functional assay; remark: listed apart in the source
[12] = target: T5, human glucagon receptor; experiment: cell-based or functional assay; remark: listed apart in the source
[13] = target: T4, human GLP-1 receptor; experiment: cell-based or functional assay; remark: listed apart in the source
[14] = target: rat glucagon receptor (rat, UniProt P30082 27-485); experiment: cell-based or functional assay
Chain of rat glucagon receptor (P30082 27-485): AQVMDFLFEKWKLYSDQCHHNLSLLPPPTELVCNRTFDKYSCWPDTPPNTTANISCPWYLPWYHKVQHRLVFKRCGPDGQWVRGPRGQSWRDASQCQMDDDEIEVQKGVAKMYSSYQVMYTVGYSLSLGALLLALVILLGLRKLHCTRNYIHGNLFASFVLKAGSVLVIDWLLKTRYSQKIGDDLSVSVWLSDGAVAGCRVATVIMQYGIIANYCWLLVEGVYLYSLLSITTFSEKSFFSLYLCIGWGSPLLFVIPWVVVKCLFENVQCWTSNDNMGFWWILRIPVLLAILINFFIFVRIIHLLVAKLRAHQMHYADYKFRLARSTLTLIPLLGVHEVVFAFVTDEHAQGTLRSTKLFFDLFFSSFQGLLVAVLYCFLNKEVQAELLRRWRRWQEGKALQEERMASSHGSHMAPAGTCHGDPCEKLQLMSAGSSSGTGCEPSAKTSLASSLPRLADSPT

[15] = target: T3, rat GLP-1 receptor; experiment: cell-based or functional assay
[16] = target: human serum albumin (human) (UniProt P02768); experiment: calculated from the variation in cAMP generation with the HSA concentration
Chain of human serum albumin (human) (P02768 25-609 limits assumed): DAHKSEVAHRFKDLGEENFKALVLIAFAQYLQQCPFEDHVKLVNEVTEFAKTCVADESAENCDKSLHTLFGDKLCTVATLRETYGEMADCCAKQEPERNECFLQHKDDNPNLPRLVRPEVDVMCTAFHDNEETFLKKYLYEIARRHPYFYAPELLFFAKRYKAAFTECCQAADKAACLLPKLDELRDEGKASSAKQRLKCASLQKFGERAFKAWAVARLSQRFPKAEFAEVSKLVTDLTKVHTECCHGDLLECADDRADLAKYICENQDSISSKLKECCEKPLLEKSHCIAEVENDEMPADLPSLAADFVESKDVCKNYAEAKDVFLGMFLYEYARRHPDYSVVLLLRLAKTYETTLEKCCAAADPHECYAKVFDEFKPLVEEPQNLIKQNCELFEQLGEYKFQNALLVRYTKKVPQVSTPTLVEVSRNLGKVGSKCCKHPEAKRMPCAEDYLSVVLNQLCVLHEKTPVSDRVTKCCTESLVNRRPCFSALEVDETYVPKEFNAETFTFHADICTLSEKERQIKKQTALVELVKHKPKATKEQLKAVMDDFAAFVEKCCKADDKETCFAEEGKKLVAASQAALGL

[17] = target: human GLP-1 receptor (human) (UniProt P43220); experiment: cell-based or functional assay
Chain of human GLP-1 receptor (human) (P43220 24-463): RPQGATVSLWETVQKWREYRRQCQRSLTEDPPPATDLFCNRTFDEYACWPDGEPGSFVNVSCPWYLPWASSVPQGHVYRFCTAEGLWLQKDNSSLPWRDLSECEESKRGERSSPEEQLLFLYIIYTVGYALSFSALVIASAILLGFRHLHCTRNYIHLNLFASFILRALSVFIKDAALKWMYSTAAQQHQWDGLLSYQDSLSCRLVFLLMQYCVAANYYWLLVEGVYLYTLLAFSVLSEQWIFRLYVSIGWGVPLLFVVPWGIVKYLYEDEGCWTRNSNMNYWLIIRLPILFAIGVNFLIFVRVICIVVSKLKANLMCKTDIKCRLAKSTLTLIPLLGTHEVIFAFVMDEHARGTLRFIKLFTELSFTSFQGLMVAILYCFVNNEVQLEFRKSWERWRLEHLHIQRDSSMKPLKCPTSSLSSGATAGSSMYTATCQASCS

[18] = target: human glucagon receptor (human) (UniProt P47871); experiment: cell-based or functional assay
Chain of human glucagon receptor (human) (P47871 26-477): as the sequence (P47871 26-477) above

Binder	cAMP EC50 (assay 1) [1] [nM]	cAMP EC50 (assay 1) [2] [nM]	cAMP EC50 (assay 1) [3] [nM]	cAMP EC50 (assay 1) [4] [nM]	cAMP EC50 (assay 1) [5] [nM]	cAMP EC50 (assay 1) [6] [nM]	cAMP EC50 (assay 2, 4.4% human serum albumin) [7] [nM]	cAMP EC50 (assay 2, 3.2% mouse serum albumin) [8] [nM]	cAMP EC50 (assay 2, 4.4% human serum albumin) [9] [nM]	cAMP EC50 (assay 2, 3.2% mouse serum albumin) [10] [nM]	cAMP EC50 (assay 1) [11] [nM]	cAMP EC50 (assay 1) [12] [nM]	EC50 at the GLP1R at 0% HSA (calculated) [13] [nM]	cAMP EC50 (assay 2, 3.2% rat serum albumin) [14] [nM]	cAMP EC50 (assay 2, 3.2% rat serum albumin) [15] [nM]	free peptide at 4.4% HSA [16] [%]	cAMP EC50 (assay 1) [17] [nM]	cAMP EC50 (assay 1) [18] [nM]
HGQGTFTSDYSKYLDSK([γGlu-Palmitoyl])RAQDFVQWLVAGG-NH2 (N-terminus assumed; SMILES CCCCCCCCCCCCCCCC(=O)N[C@@H](CCC(=O)NCCCC[C@H](NC(=O)[C@H](CO)NC(=O)[C@H](CC(=O)O)NC(=O)[C@H](CC(C)C)NC(=O)[C@H](Cc1ccc(O)cc1)NC(=O)[C@H](CCCCN)NC(=O)[C@H](CO)NC(=O)[C@H](Cc1ccc(O)cc1)NC(=O)[C@H](CC(=O)O)NC(=O)[C@H](CO)NC(=O)[C@@H](NC(=O)[C@H](Cc1ccccc1)NC(=O)[C@@H](NC(=O)CNC(=O)[C@H](CCC(N)=O)NC(=O)CNC(=O)[C@@H](N)Cc1c[nH]cn1)[C@@H](C)O)[C@@H](C)O)C(=O)N[C@@H](CCCNC(=N)N)C(=O)N[C@@H](C)C(=O)N[C@@H](CCC(N)=O)C(=O)N[C@@H](CC(=O)O)C(=O)N[C@@H](Cc1ccccc1)C(=O)N[C@H](C(=O)N[C@@H](CCC(N)=O)C(=O)N[C@@H](Cc1c[nH]c2ccccc12)C(=O)N[C@@H](CC(C)C)C(=O)N[C@H](C(=O)N[C@@H](C)C(=O)NCC(=O)NCC(N)=O)C(C)C)C(C)C)C(=O)O) [G380]	0.077	0.217	130	0.1	0.362	609	6.54	15	53.6	576	–	–	–	–	–	–	–	–
HSQGTFTSDYSKK([γGlu-Palmitoyl])LDSERARDFVAWLVAGG-OH (N-terminus assumed; SMILES CCCCCCCCCCCCCCCC(=O)N[C@@H](CCC(=O)NCCCC[C@H](NC(=O)[C@H](CCCCN)NC(=O)[C@H](CO)NC(=O)[C@H](Cc1ccc(O)cc1)NC(=O)[C@H](CC(=O)O)NC(=O)[C@H](CO)NC(=O)[C@@H](NC(=O)[C@H](Cc1ccccc1)NC(=O)[C@@H](NC(=O)CNC(=O)[C@H](CCC(N)=O)NC(=O)[C@H](CO)NC(=O)[C@@H](N)Cc1c[nH]cn1)[C@@H](C)O)[C@@H](C)O)C(=O)N[C@@H](CC(C)C)C(=O)N[C@@H](CC(=O)O)C(=O)N[C@@H](CO)C(=O)N[C@@H](CCC(=O)O)C(=O)N[C@@H](CCCNC(=N)N)C(=O)N[C@@H](C)C(=O)N[C@@H](CCCNC(=N)N)C(=O)N[C@@H](CC(=O)O)C(=O)N[C@@H](Cc1ccccc1)C(=O)N[C@H](C(=O)N[C@@H](C)C(=O)N[C@@H](Cc1c[nH]c2ccccc12)C(=O)N[C@@H](CC(C)C)C(=O)N[C@H](C(=O)N[C@@H](C)C(=O)NCC(=O)NCC(=O)O)C(C)C)C(C)C)C(=O)O) [G931]	–	–	–	–	–	–	–	–	–	–	0.13	0.0178	–	–	–	–	–	–
HSQGTFTSDKSRYLDSRSARDFVAWLEAGG (X10 = K(gE-palm); C-terminal amide) [G849]	0.009	0.00226	17	0.00907	–	18.1	0.172	–	0.079	0.103	–	–	0.002	4.05	0.044	0.48	–	–
HSQGTFTSDYSKYLDSRRAQDFVQWLVAGGPSSGAPPPSK-NH2 [g319]	–	–	–	–	–	–	–	–	–	–	–	–	–	–	–	–	0.0361	0.0104
